According to PMC9187738, “Live imaging-based assay for visualising species-specific interactions in gamete adhesion molecules” (Scientific Reports, 2022):

Columns and labels:
[1] = target: T1, human JUNO (human, UniProt A6ND01 20-228); experiment: live imaging-based adhesion molecule (LIAM) assay; BHK cells, non-inducible expression (cytomegalovirus promoter); separately transfected cells mixed in equal amounts 4 h after transfection, incubated 20 h, imaged every 6 min for 12 h at 40x, 37 °C, 5% CO2; read-outs: accumulation at the cell interface and translocation to the opposite cell, % of contacting cell pairs; conditions: partners not purified
T1 construct: JUNO, human; gene synthesised artificially (Integrated DNA technologies); also called JUNO Human; source: BHK-21 cells, transfected, on cells; not shown: mCherry, internal (just after the signal peptide), kept

[2] = target: T2, mouse mCherry-JUNO (mouse, UniProt Q9EQF4 20-222); experiment: as above; conditions: partners not purified
T2 construct: JUNO, mouse; CDS amplified from mouse cDNA; also called mouse JUNO; source: BHK-21 cells, transfected, on cells (mifepristone-inducible or cytomegalovirus promoter); also HEK293T cells, transfected, on cells; not shown: mCherry, internal (just after the signal peptide), kept
T2 sequence (looked up): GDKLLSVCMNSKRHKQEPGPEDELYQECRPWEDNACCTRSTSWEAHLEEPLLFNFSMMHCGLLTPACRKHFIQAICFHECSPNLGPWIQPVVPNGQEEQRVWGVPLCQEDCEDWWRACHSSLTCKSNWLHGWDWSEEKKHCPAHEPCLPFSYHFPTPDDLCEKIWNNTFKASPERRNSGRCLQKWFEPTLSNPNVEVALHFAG

T1 sequence (A6ND01 20-228): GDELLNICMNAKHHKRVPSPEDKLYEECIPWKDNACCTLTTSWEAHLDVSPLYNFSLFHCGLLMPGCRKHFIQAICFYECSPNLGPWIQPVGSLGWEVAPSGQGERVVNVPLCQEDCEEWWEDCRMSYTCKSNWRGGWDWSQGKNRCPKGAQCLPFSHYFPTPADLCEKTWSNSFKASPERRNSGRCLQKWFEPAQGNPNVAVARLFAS

Binder | IZUMO1 accumulation (% of contacting cell pairs) [1] | IZUMO1 accumulation (% of contacting cell pairs) [2]
mouse IZUMO1-Venus (natural protein, UniProt Q9D9J7 22-397, looked up, IZUMO1, mouse; CDS amplified from mouse cDNA; The methods say Venus or mTurquoise2 for IZUMO1, SPACA6 and CD9; the parent of the W148A mutant is named IZUMO-Venus; also called IZUMO-Venus; source: BHK-21 cells, transfected, on cells (mifepristone-inducible or cytomegalovirus promoter); also HEK293T cells, transfected, on cells; not shown: Venus, C-terminal, kept) CIKCDQFVTDALKTFENTYLNDHLPHDIHKNVMRMVNHEVSSFGVVTSAEDSYLGAVDENTLEQATWSFLKDLKRITDSDLKGELFIKELLWMLRHQKDIFNNLARQFQKEVLCPNKCGVMSQTLIWCLKCEKQLHICRKSLDCGERHIEVHRSEDLVLDCLLSWHRASKGLTDYSFYRVWENSSETLIAKGKEPYLTKSMVGPEDAGNYRCVLDTINQGHATVIRYDVTVLPPKHSEENQPPNIITQEEHETPVHVTPQTPPGQEPESELYPELHPELYPELIPTVAQNPEKKMKTRLLILLTLGFVVLVASIIISVLHFRKVSAKLKNASDEVKPTASGSKSDQSLSQQMGLKKASQADFNSDYSGDKSEATEN | 50% | 72%
human IZUMO1 (natural protein, UniProt Q8IYV9 22-350, looked up, IZUMO1, human; gene synthesised artificially (Integrated DNA technologies); also called IZUMO1 Human; source: BHK-21 cells, transfected, on cells; also HEK293T cells, transfected, on cells; not shown: Venus or mTurquoise2, C-terminal, kept) CVICDPSVVLALKSLEKDYLPGHLDAKHHKAMMERVENAVKDFQELSLNEDAYMGVVDEATLQKGSWSLLKDLKRITDSDVKGDLFVKELFWMLHLQKETFATYVARFQKEAYCPNKCGVMLQTLIWCKNCKKEVHACRKSYDCGERNVEVPQMEDMILDCELNWHQASEGLTDYSFYRVWGNNTETLVSKGKEATLTKPMVGPEDAGSYRCELGSVNSSPATIINFHVTVLPKMIKEEKPSPNIVTPGEATTESSISLQPLQPEKMLASRLLGLLICGSLALITGLTFAIFRRRKVIDFIKSSLFGLGSGAAEQTQVPKEKATDSRQQ | 27% | 
